In patent US20260250421A1 (BIOCYTOGEN PHARMACEUTICALS BEIJING, published 2026):

How the values were obtained:
[1] = target: T1, dog PTK7 on dog cancer cell lines (dog, UniProt A0A8I3N574 31-1070); experiment: flow cytometry on CMT-U27 and D-17 cells
T1 construct: whole, on cells; Endogenous protein on dog tumour cell lines; also called PTK7 on CMT-U27 and D-17 cells; dog cancer cells
T1 sequence: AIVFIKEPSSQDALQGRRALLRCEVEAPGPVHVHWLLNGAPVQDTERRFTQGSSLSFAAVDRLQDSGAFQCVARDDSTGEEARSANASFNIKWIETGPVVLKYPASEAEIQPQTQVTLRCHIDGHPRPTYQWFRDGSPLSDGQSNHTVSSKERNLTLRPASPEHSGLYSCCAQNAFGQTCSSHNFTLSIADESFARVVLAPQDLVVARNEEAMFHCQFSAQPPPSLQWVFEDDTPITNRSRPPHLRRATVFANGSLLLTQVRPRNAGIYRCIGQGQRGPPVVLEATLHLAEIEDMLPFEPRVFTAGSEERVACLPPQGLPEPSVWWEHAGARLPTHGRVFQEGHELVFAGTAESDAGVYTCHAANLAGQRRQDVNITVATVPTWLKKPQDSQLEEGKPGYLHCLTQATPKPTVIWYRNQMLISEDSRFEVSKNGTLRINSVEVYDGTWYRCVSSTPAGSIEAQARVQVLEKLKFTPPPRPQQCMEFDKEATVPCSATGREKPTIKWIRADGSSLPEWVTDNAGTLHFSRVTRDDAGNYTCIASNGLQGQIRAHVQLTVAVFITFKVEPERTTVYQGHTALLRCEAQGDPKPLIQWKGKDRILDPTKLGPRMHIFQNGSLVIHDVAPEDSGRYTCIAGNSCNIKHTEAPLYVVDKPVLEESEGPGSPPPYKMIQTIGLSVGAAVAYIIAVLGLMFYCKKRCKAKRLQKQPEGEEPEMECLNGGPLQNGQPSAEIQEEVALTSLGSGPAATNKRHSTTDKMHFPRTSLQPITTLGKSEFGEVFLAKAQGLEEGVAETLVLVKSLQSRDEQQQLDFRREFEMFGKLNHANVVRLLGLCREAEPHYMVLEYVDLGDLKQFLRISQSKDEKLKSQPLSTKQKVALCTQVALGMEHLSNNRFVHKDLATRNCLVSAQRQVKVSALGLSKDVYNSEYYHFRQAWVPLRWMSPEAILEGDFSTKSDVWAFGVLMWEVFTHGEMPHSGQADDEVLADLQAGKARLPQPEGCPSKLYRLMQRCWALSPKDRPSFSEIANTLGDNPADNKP
Experimental: (§1) The binding activity of anti-PTK7 antibodies to cancer cell lines was verified by flow cytometry. […] Purified anti-PTK7 antibody with a concentration of 5 μg/mL was added to each well and was incubated at 4° C. for 30 minutes. […] The cells were collected, and the mean fluorescence intensity (MFI) was determined. Human IgG1 was used as ISO control.

[2] = target: T1, dog PTK7 on dog cancer cell lines; experiment: flow cytometry, CMT-U27 dog cells, Ab 5 ug/mL
Experimental: as §1

[3] = target: T1, dog PTK7 on dog cancer cell lines; experiment: flow cytometry, D-17 dog cells, Ab 5 ug/mL
Experimental: as §1

[4] = target: T2, His-tagged dog PTK7 protein (dog, UniProt Q13308 31-703 (human entry)); experiment: SPR Biacore 8K, Ab on Protein A chip
T2 construct: also called dPTK7-His
T2 chain: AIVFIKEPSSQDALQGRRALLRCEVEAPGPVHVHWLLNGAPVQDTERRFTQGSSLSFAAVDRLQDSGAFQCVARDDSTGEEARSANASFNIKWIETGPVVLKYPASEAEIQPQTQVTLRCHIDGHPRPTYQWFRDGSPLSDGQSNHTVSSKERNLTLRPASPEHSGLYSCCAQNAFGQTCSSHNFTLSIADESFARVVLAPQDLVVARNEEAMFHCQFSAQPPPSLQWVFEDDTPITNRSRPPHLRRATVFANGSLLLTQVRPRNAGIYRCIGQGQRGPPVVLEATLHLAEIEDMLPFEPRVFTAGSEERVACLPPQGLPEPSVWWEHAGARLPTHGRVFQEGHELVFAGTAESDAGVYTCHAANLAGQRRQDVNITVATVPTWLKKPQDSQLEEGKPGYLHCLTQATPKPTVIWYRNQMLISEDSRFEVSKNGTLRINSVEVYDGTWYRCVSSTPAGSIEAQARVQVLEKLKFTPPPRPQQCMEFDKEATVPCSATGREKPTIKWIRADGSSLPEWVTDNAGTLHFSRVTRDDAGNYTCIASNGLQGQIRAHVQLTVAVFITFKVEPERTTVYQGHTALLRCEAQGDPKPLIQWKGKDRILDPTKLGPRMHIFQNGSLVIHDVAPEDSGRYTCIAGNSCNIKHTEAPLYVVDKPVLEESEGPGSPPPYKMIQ
Experimental: Purified anti-PTK7 antibodies were diluted to 1 μg/mL and then injected into the Biacore™ 8K biosensor at 10 μL/min for about 50 seconds to achieve a desired protein density (e.g., about 50 response units (RU)). The His-tagged PTK7 protein at a concentration of 200 nM or 0 nM was then injected at 30 μL/min for 180 seconds. Dissociation was monitored for 400 seconds. The chip was regenerated after the last injection of each titration with glycine (pH 2.0, 30 μL/min for 30 seconds).

[5] = target: T3, TROP2 on NCI-H1975 and NUGC-4 tumor cells (UniProt P09758 27-323, limits assumed); experiment: flow cytometry on NUGC-4 cells (only TROP2 expression), anti-hIgG-Fc Alexa Fluor 647 secondary antibody, MFI [B]
T3 construct: whole, on cells; species of the lines is not worded there; also called TROP2 on cells
T3 sequence (looked up): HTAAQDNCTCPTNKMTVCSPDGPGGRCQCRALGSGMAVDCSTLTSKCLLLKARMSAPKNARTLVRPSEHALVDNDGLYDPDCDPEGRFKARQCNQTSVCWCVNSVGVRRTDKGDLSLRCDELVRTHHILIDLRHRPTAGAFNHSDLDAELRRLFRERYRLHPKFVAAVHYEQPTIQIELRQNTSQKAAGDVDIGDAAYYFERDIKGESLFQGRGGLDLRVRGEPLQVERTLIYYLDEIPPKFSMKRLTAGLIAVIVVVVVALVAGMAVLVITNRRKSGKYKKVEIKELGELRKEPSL
Experimental: This experiment was performed to test the binding activities of the anti-PTK7/TROP2 bispecific antibodies to different tumor cell lines. NCI-H1975 cells or NUGC-4 cells were transferred to a 96-well plate at a density of 5×10⁴ cells/well respectively. The sample antibody was added to the 96-well plate, and incubated at 4° C. for 30 min.

B1: hu24 analog (antibody, IgG1, V domains shown)
VH: QVQLVQSGPEVKKPGASVKVSCKASGYTFTDYAVHWVRQAPGKRLEWIGVISTYNDYTYNNQDFKGRVTMTRDTSASTAYMELSRLRSEDTAVYYCARGNSYFYALDYWGQGTSVTVSS
VL: EIVLTQSPATLSLSPGERATLSCRASESVDSYGKSFMHWYQQKPGQAPRLLIYRASNLESGIPARFSGSGSGTDFTLTISSLEPEDFAVYYCQQSNEDPWTFGGGTKLEIK
notes: Humanized IgG1 monoclonal antibody targeting PTK7; also called positive control
In the case of B1, the binding result [1] is reported as “no binding (tested: 5 ug/mL)”, the MFI [2] is reported as 1940 and the MFI [3] is reported as 3690. B1: no binding (tested: 200 nM) [4]; no binding (tested: about 20 µg/mL) [5].
